Assay results reported in the supplement of paper PMC9876800.

Test system: peptide library, one residue held at a place counted from the S/T acceptor
Test: relative phosphorylation of the sub-library (ratio to the mean residue at this position); higher = residue favoured
Settings: human
Summary of the method: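 Purified recombinant kinases (human or orthologue constructs) were incubated in 384-well plates with biotinylated degenerate peptide sub-libraries, each fixing one residue at one position around a central Ser/Thr. Peptides were at 50 μM, with 50 μM ATP spiked with γ-32P-ATP, for 90 min under kinase-specific conditions. Spots on streptavidin membranes were phosphorimaged and quantified by densitometry. Relative sub-library phosphorylation is a ratio to the mean residue at that position.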

Sequence of PRKACG, construct: Full length (P22612 whole entry, looked up): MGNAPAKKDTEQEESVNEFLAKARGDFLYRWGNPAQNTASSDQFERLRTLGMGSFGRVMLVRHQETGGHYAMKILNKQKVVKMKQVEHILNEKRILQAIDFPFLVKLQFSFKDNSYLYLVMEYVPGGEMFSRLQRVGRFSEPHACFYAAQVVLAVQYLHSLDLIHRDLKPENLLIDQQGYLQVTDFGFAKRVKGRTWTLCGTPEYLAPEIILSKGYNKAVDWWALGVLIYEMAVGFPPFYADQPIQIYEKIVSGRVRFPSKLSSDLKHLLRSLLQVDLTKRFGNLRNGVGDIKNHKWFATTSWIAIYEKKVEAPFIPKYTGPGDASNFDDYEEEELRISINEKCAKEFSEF
Sequence of CDK14, construct: Full length (O94921 whole entry, looked up): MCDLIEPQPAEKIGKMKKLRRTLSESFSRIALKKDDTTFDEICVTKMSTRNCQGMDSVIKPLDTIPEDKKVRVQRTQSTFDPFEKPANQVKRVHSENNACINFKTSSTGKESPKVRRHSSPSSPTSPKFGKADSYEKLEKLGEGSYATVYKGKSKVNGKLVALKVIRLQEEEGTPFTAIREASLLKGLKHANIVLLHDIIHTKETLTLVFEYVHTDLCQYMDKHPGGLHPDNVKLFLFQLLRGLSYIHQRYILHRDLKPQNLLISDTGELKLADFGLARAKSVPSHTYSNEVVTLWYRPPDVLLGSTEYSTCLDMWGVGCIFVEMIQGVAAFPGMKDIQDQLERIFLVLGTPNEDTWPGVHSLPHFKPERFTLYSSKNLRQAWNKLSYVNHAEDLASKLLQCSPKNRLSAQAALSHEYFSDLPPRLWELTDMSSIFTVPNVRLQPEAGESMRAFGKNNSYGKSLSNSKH
Sequence of STK3, construct: Full length (Q13188 whole entry, looked up): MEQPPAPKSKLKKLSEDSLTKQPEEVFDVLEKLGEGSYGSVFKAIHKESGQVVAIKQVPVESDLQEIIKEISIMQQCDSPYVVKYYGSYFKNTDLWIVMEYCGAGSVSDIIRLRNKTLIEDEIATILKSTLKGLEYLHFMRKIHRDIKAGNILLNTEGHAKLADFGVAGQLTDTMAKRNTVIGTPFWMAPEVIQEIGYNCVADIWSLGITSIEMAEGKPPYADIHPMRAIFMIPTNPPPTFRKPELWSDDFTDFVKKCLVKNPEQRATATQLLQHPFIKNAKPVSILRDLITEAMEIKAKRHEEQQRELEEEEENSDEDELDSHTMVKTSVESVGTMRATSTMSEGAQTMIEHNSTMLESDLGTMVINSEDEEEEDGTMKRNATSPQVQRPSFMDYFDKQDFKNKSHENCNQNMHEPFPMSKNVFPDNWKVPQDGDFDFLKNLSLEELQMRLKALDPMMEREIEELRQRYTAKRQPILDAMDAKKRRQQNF
Sequence of PLK4, construct: aa1-836 (O00444 1-836, looked up): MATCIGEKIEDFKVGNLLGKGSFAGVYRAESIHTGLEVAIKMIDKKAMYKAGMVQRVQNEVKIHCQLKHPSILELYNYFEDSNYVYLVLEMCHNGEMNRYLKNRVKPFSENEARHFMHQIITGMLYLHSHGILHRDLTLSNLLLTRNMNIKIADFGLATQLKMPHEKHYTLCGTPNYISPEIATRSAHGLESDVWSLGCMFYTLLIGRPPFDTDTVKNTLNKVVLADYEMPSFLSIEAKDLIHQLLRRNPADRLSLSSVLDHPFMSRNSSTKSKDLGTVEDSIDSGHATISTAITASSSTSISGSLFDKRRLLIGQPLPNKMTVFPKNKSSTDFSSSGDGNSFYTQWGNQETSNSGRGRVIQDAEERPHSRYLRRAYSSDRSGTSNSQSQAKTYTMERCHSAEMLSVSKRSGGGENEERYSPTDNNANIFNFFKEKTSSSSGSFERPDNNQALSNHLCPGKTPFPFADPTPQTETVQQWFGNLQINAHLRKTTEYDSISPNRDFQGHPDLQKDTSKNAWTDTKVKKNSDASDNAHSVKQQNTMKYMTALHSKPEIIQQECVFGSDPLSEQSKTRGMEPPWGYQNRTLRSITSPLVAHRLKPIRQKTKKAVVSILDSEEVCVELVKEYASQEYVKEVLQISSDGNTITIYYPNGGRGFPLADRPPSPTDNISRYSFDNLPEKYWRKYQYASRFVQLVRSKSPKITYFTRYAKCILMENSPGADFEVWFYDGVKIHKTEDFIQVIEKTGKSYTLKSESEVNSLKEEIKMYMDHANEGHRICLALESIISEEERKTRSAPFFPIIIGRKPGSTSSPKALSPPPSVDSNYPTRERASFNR

PLK4, construct: aa1-836 (from UniProt O00444)
relative phosphorylation
Settings	at +1	at +2	at +3	at +4	at -1	at -2	at -3	at -4	at -5
A fixed	0.459	0.471	0.813	1.24	0.953	0.708	1.03	1.24	1.26
D fixed	0.141	0.195	0.641	0.629	0.452	2.77	0.913	1.08	0.912
E fixed	0.135	0.148	0.874	0.705	0.493	1.26	0.791	0.991	0.918
F fixed	3.31	2.2	1.18	0.861	0.621	0.829	0.569	0.691	0.873
G fixed	0.61	0.24	0.821	1.4	2.08	1.35	1.25	1.42	1.43
H fixed	0.675	1.6	1.03	1.09	0.988	1.15	0.848	1.14	1.21
I fixed	1.67	1.39	1.4	1.01	0.347	0.395	0.478	0.625	0.582
K fixed	0.413	0.219	0.704	1.05	2.14	0.712	1.07	1.04	1.28
L fixed	1.62	1.35	1.33	1.01	0.858	0.398	0.715	0.748	0.771
M fixed	2.44	0.906	1.2	1.05	1.33	0.676	0.867	0.893	0.728
N fixed	0.409	0.294	0.58	0.829	1.09	2.41	1.97	1.54	1.28
P fixed	0.168	0.141	0.381	1.55	0.331	0.486	1.98	1.25	0.926
Q fixed	0.58	0.252	0.785	1.01	1.27	0.778	0.96	0.956	0.825
R fixed	0.44	0.216	0.609	0.711	1.85	0.75	1.14	0.944	1.07
V fixed	1.08	1.12	1.36	0.969	0.571	0.44	1.08	0.776	0.87
W fixed	1.47	2.81	1.84	0.991	0.672	1	0.717	0.917	1.21
Y fixed	1.38	3.44	1.44	0.889	0.955	0.881	0.627	0.746	0.848
pThr fixed	0.54	0.446	0.572	0.592	0.571	0.796	1.08	0.931	0.889
pTyr fixed	0.526	1.37	0.734	0.52	1.06	0.753	0.841	0.86	0.806

PRKACG, construct: Full length (from UniProt P22612)
relative phosphorylation
Settings	at +1	at +2	at +3	at +4	at -1	at -2	at -3	at -4	at -5
A fixed	0.696	1.22	0.896	0.974	0.795	0.472	0.682	0.944	1.09
D fixed	0.44	0.969	0.917	0.885	0.473	0.197	0.322	0.595	0.569
E fixed	0.469	0.676	0.951	0.985	0.452	0.215	0.344	0.665	0.577
F fixed	1.58	1.13	1.06	0.761	0.709	0.578	0.441	0.653	0.754
G fixed	0.804	1.08	1.26	1.17	1.21	0.565	0.846	1.09	1.09
H fixed	1.05	1.45	1.39	1.14	1.11	1.08	1.35	1.3	1.42
I fixed	1.57	0.902	0.819	1.16	0.343	0.227	0.289	0.564	0.63
K fixed	1.08	0.812	1.08	0.978	2.41	4.09	2.19	1.85	1.97
L fixed	1.32	0.961	0.87	0.866	0.746	0.324	0.297	0.582	0.627
M fixed	1.51	0.926	0.805	0.879	0.959	0.414	0.49	0.873	0.713
N fixed	0.851	0.942	0.921	1.04	1.15	0.689	0.776	1.01	0.965
P fixed	0.295	0.941	1.05	1.28	1.16	0.445	1.03	1.06	0.86
Q fixed	1.05	0.975	0.913	0.937	1.1	0.532	0.789	1.04	0.91
R fixed	1.18	0.87	1.11	0.886	1.97	6.02	5.51	2.44	2.36
V fixed	1.18	1.02	0.871	0.991	0.563	0.217	0.315	0.678	0.777
W fixed	0.963	0.99	1.04	1.1	0.768	0.462	0.615	0.821	0.856
Y fixed	0.969	1.14	1.05	0.979	1.09	0.478	0.716	0.847	0.824
pThr fixed	0.817	0.71	0.919	1.52	0.455	0.542	0.792	0.954	0.769
pTyr fixed	0.939	1.03	1.26	1.29	0.59	0.455	0.614	0.655	0.751

CDK14, construct: Full length (from UniProt O94921)
relative phosphorylation
Settings	at +1	at +2	at +3	at +4	at -1	at -2	at -3	at -4	at -5
A fixed	0.252	0.535	0.827	0.626	0.896	0.722	0.989	0.958	0.859
D fixed	0.129	0.365	0.343	0.472	0.376	0.251	0.328	0.625	0.582
E fixed	0.123	0.292	0.266	0.344	0.366	0.258	0.438	0.592	0.521
F fixed	0.298	0.793	1.44	0.708	0.704	0.777	0.768	0.725	0.798
G fixed	1.29	0.619	0.785	1.64	2.02	0.774	1.29	1.08	1.13
H fixed	0.294	1.19	0.793	1.08	0.835	0.972	0.974	0.978	1.34
I fixed	0.332	1.25	1.03	0.677	0.324	0.749	0.879	1.39	1.22
K fixed	0.38	2	0.937	1.84	1.44	1.14	1.09	1.59	1.78
L fixed	0.392	1.39	2.38	0.74	1.04	1.29	0.839	1.2	1.23
M fixed	0.345	1.1	1.97	0.88	1.36	1.11	0.875	0.942	1.06
N fixed	0.247	0.858	0.6	1.04	0.873	0.701	0.75	1.19	1.15
P fixed	11.4	0.665	1.28	1.07	1.77	2.49	1.43	1.01	0.957
Q fixed	0.286	0.854	0.772	0.935	0.863	0.794	0.756	0.843	0.822
R fixed	0.377	2.41	1.02	2.69	1.92	2.6	3	1.31	1.17
V fixed	0.305	1.05	0.764	0.582	0.421	0.724	0.753	0.717	0.71
W fixed	0.301	0.713	1.09	0.962	0.802	0.995	0.955	1.06	0.823
Y fixed	0.257	0.92	0.698	0.714	0.984	0.648	0.884	0.78	0.865
pThr fixed	0.511	0.842	0.801	0.524	0.457	0.755	0.839	0.879	0.885
pTyr fixed	0.609	0.486	0.841	0.387	0.427	0.42	0.605	0.531	0.697

STK3, construct: Full length (from UniProt Q13188)
relative phosphorylation
Settings	at +1	at +2	at +3	at +4	at -1	at -2	at -3	at -4	at -5
A fixed	0.661	0.581	0.858	1.04	0.779	0.875	0.933	0.913	1.03
D fixed	0.346	0.503	0.732	0.903	2.13	1.3	1.5	1.32	1.46
E fixed	0.48	0.55	0.651	0.554	1.02	1.19	1.39	1.42	1.2
F fixed	0.902	0.508	0.855	0.762	0.651	1.64	0.919	1.07	0.976
G fixed	0.728	0.737	1.14	1.45	1.3	0.916	1.15	1.01	0.989
H fixed	0.58	1.48	1.11	1.13	1.13	1.18	0.957	1.07	1.15
I fixed	1.92	0.532	0.872	0.747	0.346	0.457	0.461	0.501	0.601
K fixed	0.419	2.81	1.41	1.26	1.17	0.444	0.517	0.821	0.784
L fixed	2.37	0.687	1.05	0.951	0.917	0.511	0.601	0.598	0.821
M fixed	2.76	0.687	0.886	1.02	0.823	0.877	0.727	0.789	0.817
N fixed	0.589	1.64	1.12	1.09	1.74	1.32	1.21	1.17	1.1
P fixed	0.26	0.733	1.1	1.18	0.706	0.555	1.08	0.926	1.23
Q fixed	0.761	1.28	1.06	1.24	1.26	0.953	1.15	1.32	1.06
R fixed	0.479	2.35	1.45	0.852	0.783	0.472	0.602	0.881	0.704
V fixed	1.09	0.747	0.827	0.871	0.511	0.514	0.64	0.809	0.89
W fixed	1.87	0.549	0.925	1.11	0.819	1.63	1.78	1.12	1.15
Y fixed	0.792	0.626	0.953	0.841	0.909	2.17	1.4	1.26	1.03
pThr fixed	1.04	1.05	0.9	0.916	0.849	1.04	1.18	1.08	1.06
pTyr fixed	0.632	0.544	0.771	0.75	0.599	1.56	1.26	1.2	1.24
